Data taken from PMC10296094 (Cancers, 2023).
Where no end group is shown, it is not given here.

Target: T1, His6-tagged human centrin1 (human, UniProt Q12798 1-172)
T1 sequence (looked up): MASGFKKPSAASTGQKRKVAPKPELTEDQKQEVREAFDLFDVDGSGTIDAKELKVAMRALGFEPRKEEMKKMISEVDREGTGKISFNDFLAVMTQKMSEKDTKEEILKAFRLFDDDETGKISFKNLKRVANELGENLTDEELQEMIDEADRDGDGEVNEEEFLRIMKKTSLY
Assay: fluorescence polarisation; fluorescence anisotropy; 2-fold dilution series of centrin1, 100 nM Sfi1 peptide; 10 mM HEPES pH 7.4, 100 mM CaCl2, 0.005% v/v Tween 20; 45 min at RT
Settings: both partners purified

Kd: 30 ± 12 nM
B1: fluorescein-labelled Sfi1 peptide (peptide)
peptide: REVAARESQHNRQLLRGALRRWK
modifications: not fully specified (residue 23)
notes: Sfi1 (mitotic spindle regulator), human, residues 670-692; also called F-Sfi1
